In publication PMC4526632:

Target: T1, recombinant mouse N-cadherin-Fc chimera (N-cadherin extracellular domain-Fc fusion protein) (mouse) (UniProt P15116)
T1 sequence: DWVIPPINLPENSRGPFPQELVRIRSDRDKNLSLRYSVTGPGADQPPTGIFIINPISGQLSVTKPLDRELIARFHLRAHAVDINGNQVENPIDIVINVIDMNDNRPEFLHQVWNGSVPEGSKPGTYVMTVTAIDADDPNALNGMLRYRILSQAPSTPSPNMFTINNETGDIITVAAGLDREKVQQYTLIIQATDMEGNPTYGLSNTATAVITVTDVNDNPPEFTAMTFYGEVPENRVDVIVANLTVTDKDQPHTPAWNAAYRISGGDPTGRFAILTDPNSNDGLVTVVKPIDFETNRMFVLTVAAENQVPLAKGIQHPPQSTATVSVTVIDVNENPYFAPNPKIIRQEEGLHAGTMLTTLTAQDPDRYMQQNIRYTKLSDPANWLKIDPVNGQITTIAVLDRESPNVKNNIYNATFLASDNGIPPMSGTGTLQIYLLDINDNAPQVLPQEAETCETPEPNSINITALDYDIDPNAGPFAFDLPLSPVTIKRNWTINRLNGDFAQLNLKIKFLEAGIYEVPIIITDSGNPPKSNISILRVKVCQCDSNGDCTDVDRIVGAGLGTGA

Nanog-GFP negative cells by flow cytometry after plating dissociated iPSC-derived neurospheres on N-cad-Fc for 48 h (30% of cells on gelatin expressed Nanog): > 97%
Substance: cell surface N-cadherin of ESC/iPSC-derived neural progenitor cells (from UniProt P15116 160-906) (natural protein)
